Experimental data from patent publication US20040053329A1 (published 2004).

Target: T1, endoglin (CD105) of human endothelial cells (HUVEC and other endothelial cells) (human, UniProt P17813 26-658)
T1 construct: whole, on cells; In the immunoprecipitation the protein came from a non-denaturing lysate of 35S-methionine-labelled HUVEC; In immunofluorescence and flow cytometry it was on cells; also called endoglin-expressing HUVEC; endoglin-expressing endothelial cells
T1 sequence (looked up): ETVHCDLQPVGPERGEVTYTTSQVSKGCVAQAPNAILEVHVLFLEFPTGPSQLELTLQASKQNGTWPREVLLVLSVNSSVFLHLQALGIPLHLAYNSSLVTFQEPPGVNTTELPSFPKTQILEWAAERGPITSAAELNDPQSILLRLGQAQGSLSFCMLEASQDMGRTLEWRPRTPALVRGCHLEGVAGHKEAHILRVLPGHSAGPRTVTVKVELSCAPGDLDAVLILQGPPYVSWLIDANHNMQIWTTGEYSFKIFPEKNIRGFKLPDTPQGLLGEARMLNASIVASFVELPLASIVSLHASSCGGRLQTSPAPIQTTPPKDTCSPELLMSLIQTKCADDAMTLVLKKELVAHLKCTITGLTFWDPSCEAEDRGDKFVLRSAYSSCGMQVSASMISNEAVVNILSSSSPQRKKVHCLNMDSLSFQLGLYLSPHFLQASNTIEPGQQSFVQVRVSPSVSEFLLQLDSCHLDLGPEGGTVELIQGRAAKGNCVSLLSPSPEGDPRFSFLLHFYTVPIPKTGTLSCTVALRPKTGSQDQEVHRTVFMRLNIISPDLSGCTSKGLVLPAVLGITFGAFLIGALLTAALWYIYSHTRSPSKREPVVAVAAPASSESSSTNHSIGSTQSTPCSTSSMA
Assay: immunoprecipitation from non-denaturing lysate of 35S-methionine-labelled HUVEC
Description: Endoglin from primary human umbilical cord endothelial cells (HUVEC) was detected by means of immunoprecipitation under non-denaturing conditions. For this purpose, the [³⁵S]-methionine-labelled endothelial cells were lysed with lysing buffer (10 mM Tris-HCl pH 7.5, 150 mM NaCl, 1% sodium deoxycholate, 1% Nonidet P40) for 30 min at 4° C. […] The complexes were washed several times with lysing buffer and finally resuspended in 20 μL SDS-PAGE charge buffer. After separation in the SDS-polyacrylamide gel, the gel was immobilised for 30 min in 30% methanol and 10% acetic acid and subsequently mixed with amplification solution (Amersham-Buchler). The gel was dried and exposed with an x-ray film.

B1: scFv C4 (anti-endoglin polypeptide C4 in the form of an scFv fragment) (scFv, not shown: small tags and cut ends)
scFv: AQVQLVQSGAEVKKPGATVKISCKVSGYTFTDYYMHWVQQAPGKGLEWMGLVDPEDGETIYAEKFQGRVTITADTSTDTAYMELSSLRSEDTAVYYCARRTTHGPDPHWGQGTLVTVSSGGGGSGGGGSGGSALDIQLTQSPSSLSASVGDRVTITCRASQSISSYLNWYQRKPGKAPKLLIYAASSLQSGVPSRFSGSGSGTDFTLTISSLQPEDFATYYCQQSYSTRTFGQGTKLEIKR
notes: also called polypeptide scFv C4; anti-endoglin-antibody
B1: binds.
